Measured values as given in PMC10811483.

What was measured:
Test in all cases: SPR
[1] = target: Z-M_D37AzK
[2] = target: Z-M_K33AzK
[3] = target: Z-M_K33AzK-PyOx
[4] = target: Z-M_H19AzK-PyOx
[5] = target: Z-M_M8AzK-PyOx
[6] = target: Z-M_H19AzK
[7] = target: Z-M_M8AzK

trastuzumab WT (antibody)
Kd [1]: 3.52 nM
Kd [2]: 4.85 nM
Kd [3]: 3.48 nM
Kd [4]: 4.94 nM
Kd [5]: 5.02 nM
Kd [6]: 5.1 nM
Kd [7]: 3.94 nM
